Where a chain is given by its changes, count along the chain named. Names may count otherwise.
B1: TA-Fc-ABDEG-2H11 (Fc fusion)
chain: GGGGSGGGGSGGGGSGGGGSELQVVESGGGLVQAGGSLRLSCAASGRTFRSNTMGWFRQAPGKEREFVAAITWSGGTTYYADSVKGRFAISGDNAKNTVYLQMNSLKPEDTAVYYCAAEGPKWEPWNGIYHPADFGSWGQGTQVTVSS
notes: also called 2H11 parental (two-armed Fc-ABDEG-20GS-Cterm fusion); not shown: Fc-ABDEG domain
B2: 2H11-v15 fused at the C-terminus of Fc-ABDEG (two-armed) (Fc fusion)
chain: B1 chain with D134A
notes: not shown: Fc-ABDEG domain
B3: 2H11-v16 fused at the C-terminus of Fc-ABDEG (two-armed) (Fc fusion)
chain: B1 chain with F135A
notes: not shown: Fc-ABDEG domain
B4: 2H11-v12 fused at the C-terminus of Fc-ABDEG (two-armed) (Fc fusion)
chain: B1 chain with Y130A
notes: not shown: Fc-ABDEG domain
B5: 2H11-v3 fused at the C-terminus of Fc-ABDEG (two-armed) (Fc fusion)
chain: B1 chain with P121A
notes: not shown: Fc-ABDEG domain
B6: Alb23 G33A/S101A (VHH)
VHH: EVQLLESGGGLVQPGGSLRLSCAASGFTFRSFAMSWVRQAPGKGPEWVSSISGSGSDTLYADSVKGRFTISRDNSKNTLYLQMNSLRPEDTAVYYCTIGGALSRSSQGTLVTVSS
notes: VHH alone
B7: Alb23 G99A (VHH)
VHH: B6 VHH with A33G, G99A, A101S
notes: VHH alone
B8: Alb23 G100A (VHH)
VHH: B6 VHH with A33G, G100A, A101S
notes: VHH alone
B9: Alb23 L59A (VHH)
VHH: B6 VHH with A33G, L59A, A101S
notes: VHH alone
B10: Alb23 M34A (VHH)
VHH: B6 VHH with A33G, M34A, A101S
notes: VHH alone
B11: TA-Fc-ABDEG-Alb23 (Fc fusion)
chain: DKTHTCPPCPAPELLGGPSVFLFPPKPKDTLYITREPEVTCVVVDVSHEDPEVKFNWYVDGVEVHNAKTKPREEQYNSTYRVVSVLTVLHQDWLNGKEYKCKVSNKALPAPIEKTISKAKGQPREPQVYTLPPSRDELTKNQVSLTCLVKGFYPSDIAVEWESNGQPENNYKTTPPVLDSDGSFFLYSKLTVDKSRWQQGNVFSCSVMHEALKFHYTQKSLSLSPGGGGGSGGGGSGGGGSGGGGSEVQLLESGGGLVQPGGSLRLSCAASGFTFRSFGMSWVRQAPGKGPEWVSSISGSGSDTLYADSVKGRFTISRDNSKNTLYLQMNSLRPEDTAVYYCTIGGSLSRSSQGTLVTVSS
notes: also called Fc-ABDEG-Alb23 (two-armed)
B12: TA-Alb23-Fc-ABDEG (Fc fusion)
chain: EVQLLESGGGLVQPGGSLRLSCAASGFTFRSFGMSWVRQAPGKGPEWVSSISGSGSDTLYADSVKGRFTISRDNSKNTLYLQMNSLRPEDTAVYYCTIGGSLSRSSQGTLVTVSSDKTHTCPPCPAPELLGGPSVFLFPPKPKDTLYITREPEVTCVVVDVSHEDPEVKFNWYVDGVEVHNAKTKPREEQYNSTYRVVSVLTVLHQDWLNGKEYKCKVSNKALPAPIEKTISKAKGQPREPQVYTLPPSRDELTKNQVSLTCLVKGFYPSDIAVEWESNGQPENNYKTTPPVLDSDGSFFLYSKLTVDKSRWQQGNVFSCSVMHEALKFHYTQKSLSLSPG
notes: Two Alb23 VHH fragments at the N-termini of both Fc domains of efgartigimod; also called two-armed N-terminal anti-HSA-Fc-ABDEG
B13: OA-Alb23-Fc-ABDEG (Fc fusion)
chain: B12 chain with T261W
Fc: DKTHTCPPCPAPELLGGPSVFLFPPKPKDTLYITREPEVTCVVVDVSHEDPEVKFNWYVDGVEVHNAKTKPREEQYNSTYRVVSVLTVLHQDWLNGKEYKCKVSNKALPAPIEKTISKAKGQPREPQVYTLPPSRDELTKNQVSLSCAVKGFYPSDIAVEWESNGQPENNYKTTPPVLDSDGSFFLVSKLTVDKSRWQQGNVFSCSVMHEALKFHYTQKSLSLSPG

target: T1, human serum albumin (human, UniProt P02768 25-609); assay: SPR Biacore 3000, HSA on chip, pH 5.5
T1 construct: Immobilised on SPR chips; also added in solution in the FcRn occupancy assays; also called HSA; humanSA

Binder	R0 pH 5.5 [RU]	koff [s⁻¹]
B1	351	0.00016
B2	235	0.00174
B3	8.91	0.00301
B4	93.9	9.72e-05
B5	164	0.000135

target: T1, human serum albumin; assay: SPR Biacore 3000, HSA on chip, pH 7.4

Binder	R0 pH 7.4 [RU]	koff [s⁻¹]
B1	115	0.00072
B2	0.635	0.0025
B3	0.571	0.00193
B4	6.32	0.0012
B5	8.24	0.0029

target: T1, human serum albumin; assay: SPR Biacore 8K+ SCK, albumin on chip, pH 7.4

Binder	fold decrease in affinity compared to the parental Alb23 VHH fragment [fold]
B6	≥ 10
B7	≥ 10
B8	≥ 10
B9	≥ 10
B10	≥ 10

target: T1, human serum albumin; assay: SPR Biacore 8K+ SCK, albumin on chip, pH 7.4; remark: another data set of the same source

Binder	Kd [nM]
B6	116
B7	100
B8	30.6
B9	51
B10	175

target: T2, cynomolgus monkey serum albumin (cynomolgus monkey, UniProt A2V9Z4 25-608); assay: SPR Biacore 8K+ SCK, albumin on chip, pH 7.4
T2 construct: Immobilised on SPR chips; also called cynoSA; cynomolgus albumin

Binder	Kd [nM]
B6	146
B7	152
B8	37.9
B9	55.6
B10	182

target: T3, mouse serum albumin (mouse, UniProt P07724 25-608); assay: SPR Biacore 8K+ SCK, albumin on chip, pH 7.4
T3 construct: Immobilised on SPR chips; also called mouseSA; MSA

Binder	Kd [nM]
B6	118
B7	73.1
B8	87.8
B9	354
B10	149

target: T1, human serum albumin; assay: SPR Biacore 8K+ SCK, albumin on chip, pH 5.5

Binder	Kd [nM]	koff [s⁻¹]	kon [M⁻¹ s⁻¹]
B6	55	0.0672	1.22e+06
B7	42.5	0.0473	1.11e+06
B8	19.3	0.0184	950000
B9	28.6	0.0268	935000
B10	73.8	0.0837	1.13e+06

target: T1, human serum albumin; assay: SPR Biacore 8K+ SCK, albumin on chip, pH 7.4; remark: another data set of the same source

Binder	Kd [nM]	koff [s⁻¹]	kon [M⁻¹ s⁻¹]
B6	116	0.133	1.15e+06
B7	100	0.0954	955000
B8	30.6	0.0232	758000
B9	51	0.0451	885000
B10	175	0.226	1.29e+06

target: T2, cynomolgus monkey serum albumin; assay: SPR Biacore 8K+ SCK, albumin on chip, pH 5.5

Binder	Kd [nM]	koff [s⁻¹]	kon [M⁻¹ s⁻¹]
B6	61.6	0.0711	1.15e+06
B7	47.2	0.0495	1.05e+06
B8	21.5	0.0195	905000
B9	25.6	0.0241	940000
B10	76	0.0831	1.09e+06

target: T2, cynomolgus monkey serum albumin; assay: SPR Biacore 8K+ SCK, albumin on chip, pH 7.4; remark: another data set of the same source

Binder	Kd [nM]	koff [s⁻¹]	kon [M⁻¹ s⁻¹]
B6	146	0.129	881000
B7	152	0.0809	533000
B8	37.9	0.0266	701000
B9	55.6	0.0444	797000
B10	182	0.356	1.95e+06

target: T4, neonatal Fc receptor (FcRn), endogenous in U937 cells (human, UniProt P55899 24-365; P61769 21-119); assay: FcRn occupancy, FACS, U937 cells, with albumin
T4 construct: whole, on cells; Free FcRn was stained intracellularly after fixation and permeabilisation
T4 sequence (P55899 24-365 limits assumed, chain 1 of 2): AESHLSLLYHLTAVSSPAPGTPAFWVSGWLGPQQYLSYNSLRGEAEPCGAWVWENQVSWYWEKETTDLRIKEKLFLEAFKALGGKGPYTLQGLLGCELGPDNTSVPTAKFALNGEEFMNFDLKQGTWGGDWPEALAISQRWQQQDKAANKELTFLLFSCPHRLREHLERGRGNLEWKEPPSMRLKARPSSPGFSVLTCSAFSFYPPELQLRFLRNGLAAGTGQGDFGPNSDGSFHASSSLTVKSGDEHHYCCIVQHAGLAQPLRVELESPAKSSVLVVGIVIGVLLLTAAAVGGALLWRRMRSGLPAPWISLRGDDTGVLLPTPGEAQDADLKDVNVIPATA
T4 sequence (P61769 21-119 limits assumed, chain 2 of 2): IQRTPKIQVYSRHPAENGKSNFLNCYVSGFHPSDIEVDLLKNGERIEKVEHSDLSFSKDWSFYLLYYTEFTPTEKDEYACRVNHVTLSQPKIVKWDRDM
Method: (§1) Next, FcRn occupancy was tested using a cell-based FcRn occupancy assay in the presence or absence of albumin. […] Cells (HEK FcRn mut or U937) were plated in a 96-well microplate. Cells were incubated with test article for two hours, shaking at 37° C., pH 7.4 in FACS buffer. Plates were then transferred immediately on ice and cells were collected by centrifugation at 4° C. Cells stained for viability in FACS buffer at pH 6 and then fixed/permeabilized in permeabilization buffer at pH 6. […] Cells were analyzed by FACS, ensuring that they are kept on ice until immediately prior to analysis.

Binder	% max occupancy [%]	IC50 [nM]
B11	69.7	14.5
B12	39.1	389
B13	51.1	25

target: T4, neonatal Fc receptor (FcRn), endogenous …; assay: FcRn occupancy, FACS, U937 cells, without albumin
Method: as §1

Binder	IC50 [nM]
B12	7.5
B13	8.5

target: T1, human serum albumin; assay: SPR Biacore 8K+ SCK, albumin on chip, ratio of KD

Binder	KD pH 5.5/pH 7.4
B6	0.47
B7	0.43
B8	0.63
B9	0.56
B10	0.42

target: T2, cynomolgus monkey serum albumin; assay: SPR Biacore 8K+ SCK, albumin on chip, ratio of KD

Binder	KD pH 5.5/pH 7.4
B6	0.42
B7	0.31
B8	0.57
B9	0.46
B10	0.42

target: T1, human serum albumin; assay: SPR Biacore 3000, HSA on chip, ratio of R0 at pH 5.5 and pH 7.4

Binder	R0 5.5/7.4
B1	3
B2	370
B3	16
B4	14.9
B5	19.9

target: T1, human serum albumin; assay: SPR (Biacore), albumin binding at pH 5.5 and pH 7.4; concentration not given; the legend says only albumin, the example names albumin coated and construct flown over

Binder	binding result
B11	binds
